Experimental data reported in patent US20120316071A1 (published 2012).

Experiments:
[1] = biological target: T1, rHuman HGF R/c-MET/Fc Chimera, CF (R&D Systems Cat#358-MT/CF) (human, UniProt P08581 25-932); experiment: ECL multispot (MSD) assay, spotted antigen; Fab 0.20 (head prints uM)
T1 construct: Bought recombinant protein; also called HGF R/Fc; Fc part of the bought chimera not given

[2] = biological target: T2, Recombinant Human DLL4 (R&D Systems Cat#1506-D4/CF) (human, UniProt Q9NR61 27-524); experiment: as above
T2 construct: Bought recombinant protein; also called delta-like protein 4

[3] = biological target: T3, rHuman IGF-1 sR, CF (R&D Systems Cat#391-GR) (human, UniProt P08069 31-932); experiment: as above
T3 construct: Bought soluble receptor; The column head prints only 'IGF-1'; also called insulin-like growth factor-1 soluble receptor

[4] = biological target: T4, rHuman P-Cadherin/Fc Chimera, CF (R&D Systems Cat#861-PC) (human, UniProt P22223 108-654); experiment: as above
T4 construct: Bought recombinant protein; Fc part of the bought chimera not given

[5] = biological target: T5, rHuman ErbB2/Fc Chimera, CF (R&D Systems Cat#1129-ER) (human, UniProt P04626 23-652); experiment: as above
T5 construct: Bought recombinant protein; Fc part of the bought chimera not given

[6] = biological target: T6, rHuman Notch-1/Fc Chimera, CF (R&D Systems Cat#3647-TK) (human, UniProt P46531 19-526); experiment: as above
T6 construct: Bought recombinant protein; Fc part of the bought chimera not given

[7] = biological target: T7, Recombinant Human DLL4 (R&D Systems Cat#1506-D4/CF) (human, UniProt Q9NR61 27-529); experiment: MSD Multispot ECL, antigen spotted on plate, Fab 8.1 nM; blank spot 435
T7 construct: Bought recombinant protein; also called rHuman DLL4; delta-like protein 4

[8] = biological target: T8, rHuman Notch-1/Fc Chimera, CF (R&D Systems Cat#3647-TK) (human, UniProt P46531 19-526); experiment: as above
T8 construct: Bought reagent; Fc part of the bought chimera not given

[9] = biological target: T9, rHuman Erythropoietin R/Fc Chimera, CF (R&D Systems Cat#963-ER) (human, UniProt P19235 25-250); experiment: as above
T9 construct: Bought reagent; also called EPO R/Fc; EPO R; Fc part of the bought chimera not given
T9 sequence (looked up): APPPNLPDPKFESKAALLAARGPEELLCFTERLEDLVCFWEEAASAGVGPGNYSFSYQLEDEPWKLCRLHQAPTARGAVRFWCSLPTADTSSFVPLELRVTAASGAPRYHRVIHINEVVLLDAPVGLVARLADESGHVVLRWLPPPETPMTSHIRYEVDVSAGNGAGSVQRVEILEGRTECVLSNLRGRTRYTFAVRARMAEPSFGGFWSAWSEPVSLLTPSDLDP

[10] = biological target: T10, rHuman CD44/Fc Chimera, CF (R&D Systems Cat#3660-CD) (human, UniProt P16070 21-220); experiment: as above
T10 construct: Bought reagent; Fc part of the bought chimera not given

[11] = biological target: T11, rHuman EGF R/Fc Chimera, CF (R&D Systems Cat#344-ER) (human, UniProt P00533 25-645); experiment: as above
T11 construct: Bought reagent; also called epidermal growth factor receptor; Fc part of the bought chimera not given

[12] = biological target: T12, rHuman ErbB2/Fc Chimera, CF (R&D Systems Cat#1129-ER) (human, UniProt P04626 23-652); experiment: as above
T12 construct: Bought reagent; also called human epidermal growth factor 2 receptor; Fc part of the bought chimera not given

[13] = biological target: T13, rHuman IGF-1 sR, (IGF-1 sR), CF (R&D Systems Cat#391-GR) (human, UniProt P08069 31-932); experiment: as above
T13 construct: Bought soluble receptor; also called insulin-like growth factor-1 soluble receptor

[14] = biological target: T14, rHuman HGF R/c-MET/Fc Chimera, CF (R&D Systems Cat#358-MT/CF) (human, UniProt P08581 25-932); experiment: as above
T14 construct: Bought reagent; also called HGF R/Fc; hepatocyte growth factor receptor; Fc part of the bought chimera not given

[15] = biological target: T15, rHuman CD44/Fc Chimera, CF (R&D Systems Cat#3660-CD) (human, UniProt P16070 21-220); experiment: MSD Multispot ECL, antigen spotted on plate, Fab at 480 nM; blank spot 362
T15 construct: Bought Fc chimera; Fc part of the bought chimera not given

[16] = biological target: T16, rHuman Erythropoietin R/Fc Chimera, CF (R&D Systems Cat#963-ER) (human, UniProt P19235 25-250); experiment: as above
T16 construct: Bought Fc chimera; also called EPO R/Fc; Epo R; Fc part of the bought chimera not given
T16 sequence (looked up): T9 sequence (looked up)

[17] = biological target: T17, rHuman P-Cadherin/Fc Chimera, CF (R&D Systems Cat#861-PC) (human, UniProt P22223 108-654); experiment: as above
T17 construct: Bought Fc chimera; Fc part of the bought chimera not given

[18] = biological target: T18, Recombinant Human DLL4 (R&D Systems Cat#1506-D4/CF) (human, UniProt Q9NR61 27-524); experiment: as above
T18 construct: Bought recombinant protein; also called rHuman DLL4; delta-like protein 4

[19] = biological target: T19, rHuman Notch-1/Fc Chimera, CF (R&D Systems Cat#3647-TK) (human, UniProt P46531 19-526); experiment: as above
T19 construct: Bought Fc chimera; Fc part of the bought chimera not given

B1: Fab VH5-51_IGHD5-18*01>3_IGHJ4*01 G100K/G104T & V3-4_IGLJ1*01 (Fab, V domains shown)
VH: EVQLVQSGAEVKKPGESLKISCKGSGYSFTSYWIGWVRQMPGKGLEWMGIIYPGDSDTRYSPSFQGQVTISADKSISTAYLQWSSLKASDTAMYYCARRKYSYTYDYFDYWGQGTLVTVSS
VL: QTVVTQEPSFSVSPGGTVTLTCGLSSGSVSTSYYPSWYQQTPGQAPRTLIYSTNTRSSGVPDRFSGSILGNKAALTITGAQADDESDYYCVLYMGSGISYVFGTGTKVTVL
notes: Tested as a Fab; The constant parts are the same as for the parent Fab (CH1 with His6/Flag tags, lambda CL); also called KT double mutant; H:KT
For B1, which ECL signal/noise ratio [1] is on record?
Its ECL signal/noise ratio is 2.4.

What about the ECL signal/noise ratio [2] of the same binder?
Its ECL signal/noise ratio is 3.

What about the ECL signal/noise ratio [3] of the same binder?
Its ECL signal/noise ratio is 1.9.

What about the ECL signal/noise ratio [4] of the same binder?
The ECL signal/noise ratio was 1.7.

And the ECL signal/noise ratio [5]?
The ECL signal/noise ratio was 2.5.

What about the ECL signal/noise ratio [6] of the same binder?
Its ECL signal/noise ratio is 1.9.

B2: Fab VH1-8_IGHD2-2*01_IGHJ6*01 & L12_IGKJ1*01 (Fab, V domains shown)
VH: QVQLVQSGAEVKKPGASVKVSCKASGYTFTSYDINWVRQATGQGLEWMGWMNPNSGNTGYAQKFQGRVTMTRNTSISTAYMELSSLRSEDTAVYYCARGGYCSSTSCYADYYYYYGMDVWGQGTTVTVSS
VL: not shown
Which results are given for B2?
ECL signal [7]: 1550; ECL signal [8]: 612; ECL signal [9]: 660; ECL signal [10]: 528; ECL signal [11]: 560; ECL signal [12]: 557; ECL signal [13]: 518; ECL signal [14]: 551

B3: Fab VH6-1_IGHD3-3*01_IGHJ4*01 & V4-3_IGLJ4*01 (Fab, V domains shown)
VH: QVQLQQSGPGLVKPSQTLSLTCAISGDSVSSNSAAWNWIRQSPSRGLEWLGRTYYRSKWYNDYAVSVKSRITINPDTSKNQFSLQLNSVTPEDTAVYYCAREYYDFWSGYYTDYFDYWGQGTLVTVSS
VL: QPVLTQPTSLSASPGASARLTCTLRSGINLGSYRIFWYQQKPESPPRYLLSYYSDSSKHQGSGVPSRFSGSKDASSNAGILVISGLQSEDEADYYCMIWHSSASFVFGGGTQLIIL
notes: Tested as a purified germline Fab made in E. coli; The VH was cloned into plasmid A (CH1 constant region, His6 and Flag tags) and the lambda VL into plasmid E (lambda CL)
For B3, which ECL signal [15] is on record?
The ECL signal was 541.

And the ECL signal [16]?
The ECL signal was 621.

What about the ECL signal [17] of the same binder?
The ECL signal was 596.

And the ECL signal [18]?
Its ECL signal is 1530.

What about the ECL signal [19] of the same binder?
The ECL signal was 545.
